Where “and” joins values, the source holds several entries; their conditions need not be identical. Equal entries are not always repeated.
Biological target: the molecule itself

B1: M. tuberculosis ClpX (enzyme)
chain: not shown
  stoichiometry N: 6 and 2

Reference: article doi:10.1101/491043 (bioRxiv, 2018)
